According to doi:10.1101/2025.04.22.649924:

Target: ectodomain of APP^695
Assay: SPR

Substance | SPR sensorgram peak (response units)
SORLA^N1358S ectodomain (soluble mutant SORLA ectodomain, hexa-His-tagged) (from UniProt Q92673 82-2137) (domain or fragment) | 1650 RU
SORLA^WT ectodomain (soluble wildtype SORLA ectodomain, hexa-His-tagged) (from UniProt Q92673 82-2137) (domain or fragment) | 1750 RU
